Assay results published in patent US7524498.
Several values for one entry are separate records, joined by “and”; a condition that tells them apart may be missing. Identical values can stand only once. Like-named read-outs stand apart in the source and are kept apart here.

B1: humanized BATRHC/BATRκD γ1 mAb (antibody, V domains shown)
VH: QVQLVQSGSELKKPGASVKISCKASGYTFTNYGMNWVRQAPGQGLQWMGWINTDSGESTYAEEFKGRFVFSLDTSVNTAYLQITSLTAEDTGMYFCVRVGYDALDYWGQGTLVTVSS
VL: EIVLTQSPSSLSASVGDRVTITCSARSSVSYMHWFQQKPGKAPKLWIYRTSNLASGVPSRFSGSGSGTSYCLTINSLQPEDFATYYCQQRSSFPLTFGGGTKLEIK

How the values were obtained:
BAT-1 antigen (human) [1] = experiment: flow cytometry on non-activated human CD4+ T cells
BAT-1 antigen (human) [2] = experiment: flow cytometry on PBL of a prostate cancer patient, CD8+ cells
BAT-1 antigen (human) [3] = target: BAT-1 antigen (human)
BAT-1 antigen (human) [4] = experiment: flow cytometry on PBL of a prostate cancer patient, B cells
BAT-1 antigen (human) [5] = experiment: flow cytometry on human PBL of a selected normal donor, hBAT+ CD4+ cells
BAT-1 antigen (human) [6] = experiment: flow cytometry on non-adherent PBL of a normal donor
BAT-1 antigen (human) [7] = experiment: flow cytometry on human PBL of a selected normal donor, hBAT+ CD8+ cells
BAT-1 antigen (human) [8] = experiment: flow cytometry on PBL of a prostate cancer patient, CD4+ cells
BAT-1 antigen (human) [9] = experiment: flow cytometry on non-adherent PBL of a normal donor, within CD20+ B cells
BAT-1 antigen (human) [10] = experiment: flow cytometry on non-adherent PBL of a normal donor, within CD19+ B cells
BAT-1 antigen (human) [11] = experiment: flow cytometry on human PBL of normal donors, 4° C. 1 hr, gated lymphocytes
BAT-1 antigen (human) [12] = experiment: flow cytometry on human PBL of a selected normal donor, within CD4+ cells
BAT-1 antigen (human) [13] = target: BAT-1 antigen (human); remark: listed apart in the source
BAT-1 antigen (human) [14] = experiment: flow cytometry on human PBL of a selected normal donor, within CD8+ cells
BAT-1 antigen (human) [15] = experiment: flow cytometry on human PBL of a selected normal donor
BAT-1 antigen (human) [16] = target: BAT-1 antigen (human); remark: listed apart in the source

Row | Molecule | % of CD4+ cells binding (BAT-1 antigen (human) [1]) | % of CD8+ cells bound (BAT-1 antigen (human) [2]) [%] | IC50 (BAT-1 antigen (human) [3]) [µg/mL] | % of B cells bound (BAT-1 antigen (human) [4]) [%] | % of PBL positive (CD4+ cells) (BAT-1 antigen (human) [5]) [%] | % of lymphocytes positive (BAT-1 antigen (human) [6]) | % of PBL positive (CD8+ cells) (BAT-1 antigen (human) [7]) [%] | % of CD4+ cells bound (BAT-1 antigen (human) [8]) [%] | % of CD20+ cells positive (BAT-1 antigen (human) [9]) [%] | % of CD19+ cells positive (BAT-1 antigen (human) [10]) [%] | % of cells binding (BAT-1 antigen (human) [11]) [%] | % of CD4+ cells binding (BAT-1 antigen (human) [12]) [%] | % of CD4+ cells binding (BAT-1 antigen (human) [13]) | % of CD8+ cells binding (BAT-1 antigen (human) [14]) [%] | % of cells positive (BAT-1 antigen (human) [15]) [%] | Signal Strength (BAT-1 antigen (human) [16])
1 | humanized BATRHC/BATRκD γ1 mAb (antibody) | 17% and 20% | 60 | 10 | 68 | 25 | 25% and 29% | 15 | 39 | 70 | 75 | 20 |  |  |  |  | 
2 | B1 |  |  |  |  |  |  |  |  |  |  |  | 58 | 52% and 77% | 71 | 50 | 0
